Results from patent US20220249679A1 (Mitsubishi Tanabe Pharma Corporation, priority 2018, published 2022).
Residue numbers refer to the chain shown, from its start.

T1: Human CD138 His (Homo sapiens, UniProt P18827)
T1 construct: His
T1 sequence (P18827 23-310): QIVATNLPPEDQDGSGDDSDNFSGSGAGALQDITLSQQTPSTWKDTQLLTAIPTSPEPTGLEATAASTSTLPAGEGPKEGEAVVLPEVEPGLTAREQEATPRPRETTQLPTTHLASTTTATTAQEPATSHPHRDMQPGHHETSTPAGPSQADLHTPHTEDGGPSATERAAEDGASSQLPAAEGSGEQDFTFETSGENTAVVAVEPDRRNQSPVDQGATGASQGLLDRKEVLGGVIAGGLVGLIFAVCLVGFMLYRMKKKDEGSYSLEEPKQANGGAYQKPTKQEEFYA

T2: human CD138 (Homo sapiens, UniProt P18827)
T2 sequence (P18827 23-310): T1 sequence (P18827 23-310)

B1: F11AP11E5: murine anti-CD138 hybridoma antibody; VH SEQ ID NO:87, VL SEQ ID NO:39 (antibody, listed as Mus musculus, V domains shown)
VH: QVQLQQSGAELVKPGASVKLSCKASGYTFTNYYMYWVKQRPGQGLEWIGEINPGNGGTNFNEKFKNKATLTVDKSSSTAYMQLSSLTSEDSAVYYCTTRFAYWGQGTLVIVSA
VL: DVVMTQTPLSLSVTIGQPASISCKSGQSLLYSNGKTYLTWLQQRPGQAPKLLMYQVSKLDPGIPDRFSGSGSETDFTLKISRVEAEDLGVYYCLQNTYYPHTFGAGTKLELKR
B2: 13P30A7 hIgG1: chimeric antibody: murine variable regions of F13P30A7 (SEQ ID NO:83, 35), constant regions of human IgG1, kappa (antibody, listed as Mus musculus, V domains shown)
VH: EVQLVESGGGLVQPKGSLKLSCAASGFTFNTYAMNWVRQAPGKGLEWIARIRSKSNNYATYYADSVKDRFTISRDDSQSLLYLQMNNLKTEDTAIFYCVTDYGYVYFDAWGAGTTVTVSS
VL: NIIMTQSPKSMAMSVGERVTLSCKASENVGNYVSWYQQKPEQSPKLLIYGASYRYTGVPDRFTGSGSGTDFTLTISSVQAEDLADYHCGQSSRYPLTFGAGTKLELKR
modifications: human IgG1 and kappa constant regions
B3: F13P18D8: murine anti-CD138 hybridoma antibody; VH SEQ ID NO:84, VL SEQ ID NO:36 (antibody, listed as Mus musculus, V domains shown)
VH: B2 VH with V5L, K15E, T28A, I48L, S79G, L80M, I95M, F96Y, G103Y, A109V
VL: B2 VL with I3V, A12S, N31T, P40S, E41D, Y53N, G68A, S76T, A80S
B4: F13P30A7: murine anti-CD138 hybridoma antibody; VH SEQ ID NO:83, VL SEQ ID NO:35 (antibody, listed as Mus musculus, V domains shown)
VH: B2 VH
VL: B2 VL

Assays:
[1] = target: T1, Human CD138 His; test: SPR kinetic binding, human CD138; settings: bivalent analyte fit
Protocol: Murine IgGs were purified from the hybridoma supernatants and the IgGs were subject to SPR (surface plasmon resonance) for kinetic binding measurements. Human or mouse CD138 His was immobilized on a GLM chip at […] on a BioRad Proteon. […] KDs were measured using bivalent analyte fit.

[2] = target: T2, human CD138; test: FACS binding to Expi293 cells transfected with human CD138; settings: 3-fold dilutions from 33.3 μg/mL
Protocol: (§1) 12P16F6 hIgG1 or 13P30A7 hIgG1 were tested for cross-reactivity to cynomolgus monkey CD138. Antibodies that cross-react with CD138 from cynomolgus monkey (cyno) have an advantage that they can be tested for toxicity in this strain of non-human primate prior to conducting efficacy trials. Briefly, a vector directing the cell-surface expression of human CD138 or cyno CD138 was transfected in Expi293 cells. Binding of 12P16F6 hIgG1 and 13P30A7 hIgG1 to transfected Expi293 cells was tested at 3-fold dilutions starting at 33.3 μg/mL.

[3] = test system: cyno CD138; test: FACS binding to Expi293 cells transfected with cyno CD138; design: species or system cynomolgus monkey; settings: 3-fold dilutions from 33.3 μg/mL
Protocol: as §1

Sequence of cyno CD138 (as listed by the source): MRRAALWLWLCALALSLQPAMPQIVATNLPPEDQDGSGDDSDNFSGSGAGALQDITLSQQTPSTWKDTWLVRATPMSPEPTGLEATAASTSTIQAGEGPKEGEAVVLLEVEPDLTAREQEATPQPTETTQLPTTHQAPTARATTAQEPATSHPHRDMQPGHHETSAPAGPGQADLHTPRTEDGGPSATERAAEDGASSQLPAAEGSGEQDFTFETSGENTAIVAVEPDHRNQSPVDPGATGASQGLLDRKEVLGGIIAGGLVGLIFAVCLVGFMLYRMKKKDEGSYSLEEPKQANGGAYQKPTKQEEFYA

| Molecule | hCD138 ka [1] [M⁻¹ s⁻¹] | hCD138 kd [1] [s⁻¹] | binding to human CD138 expressing cells [2] | binding to cynomolgus CD138 expressing cells [3] |
| --- | --- | --- | --- | --- |
| B1 | 128000 | 0.0117 |  |  |
| B2 |  |  | specific binding | specific binding |
| B3 | 278000 | 0.000523 |  |  |
| B4 | 238000 | 0.00127 |  |  |
